Reference: patent US20220089574A1, “CXCR4 gamete molecular structure and method thereof” (priority 2020, published 2022)
Square brackets hold non-standard residues; d marks the D form. Side chains are listed from the residue outwards. Peptide text beside a SMILES is read from it. * marks the point of attachment. DOTA = O=C(O)CN1CCN(CC(=O)O)CCN(CC(=O)*)CCN(CC(=O)O)CC1; dTyr(3-I) = N[C@H](Cc1ccc(O)c(I)c1)C(=O)O; 2Nal = N[C@@H](Cc1ccc2ccccc2c1)C(=O)O; dNMeOrn = CN[C@H](CCCN)C(=O)O; 4Amb = NCc1ccc(C(=O)O)cc1

Experiment: in vivo
Design: species or system SCID mice
Conditions: SCID, mouse, iv, total radioactivity, accumulation in the tumor
Method: Embodiment 3: Radionuclide Labeled D-L2(-B)-L1-A is Used for Animal In Vivo imaging PC-3 human […] adenocarcinoma cells were inoculated into the forelimbs of SCID mice at 4×10^6, and about 3 weeks after inoculation, the radionuclide In-111 labeled D-L2(-B)-L1-A was used to adjust with injection water, and 469-527 μCi of radioactive drugs were intravenously injected into the tail vein, and nano SPECT/CT imaging was performed after administration at 1, 4, 24, 48, 72, and 96 hours, respectively. Nano SPECT/CT was used to track the distribution of radiopharmaceuticals in the animal body at each of the time points after administration, and analysis software was used to enter the image into the semi-definite image to obtain the SPECT value from the test substance with known activity at each of the time points. The linear ratio formula was derived between the SPECT calculated value and the actual activity, and the SPECT calculated value was then used at each target organ circled area to obtain the live/volume of each target organ with interpolation or extrapolation linear formula.
For performing the calculation we assume that every 1 mL of injection dosage is 1 g, and the circled area in the mouse body is 1 g per 1 cm^3. Furthermore, since the activity volume of the administered injection and the weight of the experimental mouse are known, each gram of In-111-D-L2(-B)-L1-A's biological distribution ratio (% ID/g) in each organ can be deduced, and will focus on organ tumor, liver, kidney and muscle into the distribution comparison and obtain ratio, as shown in FIG. 10.

Compound | tissue uptake at 1 h | tissue uptake at 24 h | tissue uptake at 4 h | tissue uptake at 48 h | tissue uptake at 72 h | tissue uptake at 96 h
Cc1ccc(CCCC(=O)NCCCC[C@H](NC(=O)CN2CCN(CC(=O)O)CCN(CC(=O)O)CCN(CC(=O)O)CC2)C(=O)NCc2ccc(C(=O)NCCC[C@@H]3C(=O)N[C@@H](CCCNC(=N)N)C(=O)N[C@@H](Cc4ccc5ccccc5c4)C(=O)NCC(=O)N[C@H](Cc4ccc(O)c(I)c4)C(=O)N3C)cc2)cc1 (111In complex, metal not drawn) [I-01(-I-01)-I-01] | 5.47 %ID/g | > 1 %ID/g | – | – | – | –
Cc1ccc(CCCC(=O)NCCCC[C@H](NC(=O)CN2CCN(CC(=O)O)CCN(CC(=O)O)CCN(CC(=O)O)CC2)C(=O)NCCCCCC(=O)NCCC[C@@H]2C(=O)N[C@@H](CCCNC(=N)N)C(=O)N[C@@H](Cc3ccc4ccccc4c3)C(=O)NCC(=O)N[C@H](Cc3ccc(O)c(I)c3)C(=O)N2C)cc1 (111In complex, metal not drawn) [I-01(-I-01)-I-17] | 7.87 %ID/g | > 1 %ID/g | – | – | – | –
CN1C(=O)[C@@H](Cc2ccc(O)c(I)c2)NC(=O)CNC(=O)[C@H](Cc2ccc3ccccc3c2)NC(=O)[C@H](CCCNC(=N)N)NC(=O)[C@H]1CCCNC(=O)c1ccc(CNC(=O)CN2CCN(CC(=O)O)CCN(CC(=O)O)CCN(CC(=O)O)CC2)cc1 [In-111-pentixather, metal not drawn] (cyclo([dTyr(3-I)][dNMeOrn]([4Amb-DOTA])R[2Nal]G)) | 3.24 %ID/g | – | 1.54 %ID/g | 0.5 %ID/g | 0.24 %ID/g | 0.25 %ID/g
